Test results taken from paper PMC9966940, “Evidence and Metabolic Implications for a New Non-Canonical Role of Cu-Zn Superoxide Dismutase” (International Journal of Molecular Sciences, 2023).

Molecular target: SOD1-His ( (human or mouse cDNA cloned), UniProt P00441 1-154)
Assay: cell-based or functional assay

Chain of SOD1-His (P00441 whole entry): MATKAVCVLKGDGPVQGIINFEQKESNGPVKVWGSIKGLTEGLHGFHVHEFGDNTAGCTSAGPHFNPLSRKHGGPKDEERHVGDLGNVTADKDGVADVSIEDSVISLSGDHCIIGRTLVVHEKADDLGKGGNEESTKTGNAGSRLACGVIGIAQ

B1: YWHAZ-His (natural protein, UniProt P63104 1-245, looked up)
chain: MDKNELVQKAKLAEQAERYDDMAACMKSVTEQGAELSNEERNLLSVAYKNVVGARRSSWRVVSSIEQKTEGAEKKQQMAREYREKIETELRDICNDVLSLLEKFLIPNASQAESKVFYLKMKGDYYRYLAEVAAGDDKKGIVDQSQQAYQEAFEISKKEMQPTHPIRLGLALNFSVFYYEILNSPEKACSLAKTAFDEAIAELDTLSEESYKDSTLIMQLLRDNLTLWTSDTQGDEAEAGEGGEN
SOD1 activity of purified SOD1 after 15 h incubation with purified YWHAZ at ratios 1:1 and 1:3 (1 SOD1 to 3 YWHAZ protein amount); value at 1:3: ~2 fold
